Biological target: nucleosome core particle labeled with H4Kc20me2
Assay: native gel or EMSA

Q: Which fold reduction of affinity against wild type hORC1BAH does the source give for “human Origin Recognition Complex subunit 1 BAH domain, R105Q mutant (from UniProt Q13415 45-171) (domain or fragment)” here?
A: > 2 fold
